According to publication doi:10.1101/790931:
No end group written: not given here.

T1: C-terminal domain of E. coli TolA (E. coli)
T1 sequence (P19934 whole entry, looked up): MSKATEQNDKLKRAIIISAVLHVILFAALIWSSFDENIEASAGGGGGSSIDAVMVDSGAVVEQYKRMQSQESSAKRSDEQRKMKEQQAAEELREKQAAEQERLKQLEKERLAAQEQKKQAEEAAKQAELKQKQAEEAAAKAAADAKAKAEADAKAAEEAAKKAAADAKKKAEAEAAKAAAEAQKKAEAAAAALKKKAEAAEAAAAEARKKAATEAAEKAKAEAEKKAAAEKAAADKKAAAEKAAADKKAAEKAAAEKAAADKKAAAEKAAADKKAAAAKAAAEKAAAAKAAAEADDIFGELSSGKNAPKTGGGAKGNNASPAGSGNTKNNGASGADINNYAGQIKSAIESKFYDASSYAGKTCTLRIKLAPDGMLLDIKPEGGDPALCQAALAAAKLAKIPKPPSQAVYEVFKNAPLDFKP


Experiments:
[1] = biological target: FITC-labelled P. aeruginosa TolB[22-34] peptide (Pseudomonas aeruginosa); assay: fluorescence polarisation
[2] = biological target: T1, C-terminal domain of E. coli TolA (E. coli); assay: ITC

Chain of C-terminal domain of Pseudomonas aeruginosa TolA (TolA^224-347) (P50600 224-347): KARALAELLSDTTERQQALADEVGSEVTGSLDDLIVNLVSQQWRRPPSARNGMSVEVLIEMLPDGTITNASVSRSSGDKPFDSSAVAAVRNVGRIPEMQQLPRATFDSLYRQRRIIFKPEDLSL
Chain of P. aeruginosa TolA (residues 224-344) lacking its short C-terminal α-helix (P50600 224-344): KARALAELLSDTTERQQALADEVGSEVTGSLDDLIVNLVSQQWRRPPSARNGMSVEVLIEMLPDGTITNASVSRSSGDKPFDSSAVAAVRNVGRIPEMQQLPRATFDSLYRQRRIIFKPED

Molecule | Kd [1] [µM] | koff [1] [s⁻¹] | kon [1] [M⁻¹ s⁻¹] | Kd [2] [µM] | dH [2] [kcal/mol] | stoichiometry N [2]
P. aeruginosa TolA (residues 224-344) lacking its short C-terminal α-helix (from UniProt P50600 224-344) (domain or fragment) | 86 | 1.4 | 23800 | – | – | –
C-terminal domain of Pseudomonas aeruginosa TolA (TolA^224-347) (from UniProt P50600 224-347) (domain or fragment) | 250 | 0.9 | 7400 | – | – | –
EVRIVIDSGVDS-NH2 [E. coli TolB peptide (residues 22-33)] | – | – | – | 44 | -3.79 | 0.56
